Biological target: the molecule itself
Test: AUC

B1: His6-Dma1(187–end) (domain or fragment, S. pombe, UniProt Q10322 187-267, looked up)
chain: SGPPECCICLMPVLPCQALFVAPCSHSYHYKCIRPTLNESHPYFSCFICRKYHDLEAPVEEGDESLNDLLRNATVKDDASE
stoichiometry N: 2
